What all share (assay): FRET
Series [1] addresses T1, HsMSH2;HsMSH6 (sortase/Cy3) (Homo sapiens;Homo sapiens, UniProt P43246;P52701 1-934;1-1360, |).
Series [2] deals with T2, HsMSH2;HsMSH3 (sortase/Cy3) (Homo sapiens;Homo sapiens, UniProt P43246;P20585 1-934;1-1137, |).
Series [3] has as its target T2, HsMSH2;HsMSH3 (sortase/Cy3). The source holds these as a separate data set.
Series [4] concerns the target T1, HsMSH2;HsMSH6 (sortase/Cy3). This is another data set of the same source.
Series [5] addresses T2, HsMSH2;HsMSH3 (sortase/Cy3). This is another data set of the same source.
The target of series [6] is T1, HsMSH2;HsMSH6 (sortase/Cy3). This is another data set of the same source.

Read-outs that look alike come from different tables or passages of the source.

B1: 41-mer G/T Cy5 (dsDNA)
DNA 1: GCTTAGGATCATCGAGGATCGAGCTCGGTGCAATTCAGCGG
DNA 2: CCGCTGAATTGCACCGAGCTTGATCCTGCATGATCCTAAGC
modifications: amino-C6 dT at position 12 of top strand
As to B1, the binding result is listed as “binds” in series [1] and “no binding” in series [2].

B2: 41-mer G/+(CA)4 Cy5 (dsDNA)
DNA 1: GCTTAGGATCATCGAGGATCGAGCTCGGTGCAATTCAGCGG
DNA 2: CCGCTGAATTGCACCGAGCTCACACACACGATCCTCGATGATCCTAAGC
modifications: amino-C6 dT at position 12 of top strand
For B2, the binding result in series [3] and in series [4] was “binds” each time.

B3: 41-mer G/C Cy5 (dsDNA)
DNA 1: GCTTAGGATCATCGAGGATCGAGCTCGGTGCAATTCAGCGG
DNA 2: CCGCTGAATTGCACCGAGCTCGATCCTCGATGATCCTAAGC
modifications: amino-C6 dT at position 12 of top strand
For B3, the binding result in series [5] and in series [6] was “no binding” throughout.

Source of the values: publication doi:10.1101/2021.10.21.465318.
